According to PMC7785020, “A unique hormonal recognition feature of the human glucagon-like peptide-2 receptor” (Cell Research, 2020):
Numbering of substitutions follows the chain as printed.

How the values were obtained:
GLP-2R Y182^1.43A = target: T1, GLP-2R Y182^1.43A (Homo sapiens, UniProt O95838, Y182A); assay: cAMP accumulation, Y182^1.43A; format: cell-based; parameters: WT (1–553); expressed in transfected cells; HEK 293T (cAMP); conditions: Table S3, Y182A; HEK 293T, 30 min, RT; mean ± SEM, n ≥ 3 in duplicate; read-out: cAMP Emax (% WT)
T1 sequence (O95838 1-553 Y182A): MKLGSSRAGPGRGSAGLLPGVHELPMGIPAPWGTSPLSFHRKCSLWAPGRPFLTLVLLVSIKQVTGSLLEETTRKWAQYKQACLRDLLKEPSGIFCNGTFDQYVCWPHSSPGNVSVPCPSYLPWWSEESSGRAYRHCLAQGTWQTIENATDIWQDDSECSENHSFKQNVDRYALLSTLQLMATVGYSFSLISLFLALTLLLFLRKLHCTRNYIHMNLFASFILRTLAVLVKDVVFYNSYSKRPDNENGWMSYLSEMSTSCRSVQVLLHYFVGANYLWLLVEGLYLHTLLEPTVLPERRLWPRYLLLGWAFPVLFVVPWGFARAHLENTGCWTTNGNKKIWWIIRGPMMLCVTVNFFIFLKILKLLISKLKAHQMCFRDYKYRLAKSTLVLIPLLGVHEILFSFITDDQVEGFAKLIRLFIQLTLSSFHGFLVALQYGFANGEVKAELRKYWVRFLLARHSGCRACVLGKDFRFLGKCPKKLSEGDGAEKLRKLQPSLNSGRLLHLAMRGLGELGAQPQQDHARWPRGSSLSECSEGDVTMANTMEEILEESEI
Procedure: (§1) HEK 293T cells were cultured in Dulbecco’s Modified Eagle’s Medium (DMEM) (Gibco, Waltham, USA) supplemented with 10% (v/v) fetal bovine serum (FBS) (Gibco) and 1% (v/v) sodium pyruvate (Gibco) at 37 °C, 5% CO2 in a humidified incubator. They were seeded onto 6-well cell culture plates and transiently transfected with different GLP-2R constructs using Lipofectamine 2000 transfection reagent (Invitrogen, Carlsbad, CA, USA). After 24 h, the transfected cells were seeded onto 384-well microtiter plates (3000 cells per well) in HBSS supplemented with 5 mM HEPES, 0.1% (w/v) bovine serum albumin (BSA) and 0.5 mM 3-isobutyl-1- methylxanthine, and stimulated with increasing concentrations of GLP-2 for 30 min at RT. Eu and Ulight were diluted by cAMP detection buffer and added to the plates separately to terminate the reaction. Plates were incubated at RT for 60 min before measuring the fluorescence intensity at 620 nm and […] by an EnVision multilabel plate reader (PerkinElmer, Boston, USA).

GLP-2R N334^ECL2A = target: T2, GLP-2R N334^ECL2A (Homo sapiens, UniProt O95838, N334A); assay: cAMP accumulation, N334^ECL2A; format: cell-based; parameters: GLP-2R (1-553) (WT); expressed in transfected cells; host or cells: HEK 293T; conditions: Table S3, N334A; HEK 293T, 30 min, RT; mean ± SEM, n ≥ 3 in duplicate; read-out: cAMP Emax (% WT)
T2 sequence (O95838 1-553 N334A): T1 sequence (O95838 1-553 Y182A) with A182Y, N334A
Procedure: as §1

[1] = target: GLP-2R N247^ECL1A (human) (UniProt O95838); assay: radioligand binding; competition on transiently transfected COS-7 cells: unlabeled GLP-2(1–33) 0.1 nM to 1 μM against 10–15 pM [125I]GLP-2(1–33, M10Y); 4 h, 4 °C; 50 mM HEPES pH 7.4, 1 mM CaCl2, 5 mM MgCl2, 0.5% BSA; three-parameter logistic fit
[2] = target: GLP-2R R344^5.40A (human) (UniProt O95838); assay: as above
[3] = target: GLP-2R W249^ECL1A (human) (UniProt O95838); assay: as above
[4] = target: GLP-2R W340^5.36A (human) (UniProt O95838); assay: as above
[5] = target: Human GLP-2R WT (1–553) (human) (UniProt O95838); assay: as above

CC[C@H](C)[C@H](NC(=O)[C@H](Cc1ccccc1)NC(=O)[C@H](CC(=O)O)NC(=O)[C@H](CCCNC(=N)N)NC(=O)[C@H](C)NC(=O)[C@H](C)NC(=O)[C@H](CC(C)C)NC(=O)[C@H](CC(N)=O)NC(=O)[C@H](CC(=O)O)NC(=O)[C@H](CC(C)C)NC(=O)[C@@H](NC(=O)[C@@H](NC(=O)[C@H](CC(N)=O)NC(=O)[C@H](CCSC)NC(=O)[C@H](CCC(=O)O)NC(=O)[C@H](CC(=O)O)NC(=O)[C@H](CO)NC(=O)[C@H](Cc1ccccc1)NC(=O)[C@H](CO)NC(=O)CNC(=O)[C@H](CC(=O)O)NC(=O)[C@H](C)NC(=O)[C@@H](N)Cc1c[nH]cn1)[C@@H](C)O)[C@@H](C)CC)C(=O)N[C@@H](CC(N)=O)C(=O)N[C@@H](Cc1c[nH]c2ccccc12)C(=O)N[C@@H](CC(C)C)C(=O)N[C@H](C(=O)N[C@@H](CCC(N)=O)C(=O)N[C@H](C(=O)N[C@@H](CCCCN)C(=O)N[C@H](C(=O)N[C@H](C(=O)N[C@@H](CC(=O)O)C(=O)O)[C@@H](C)O)[C@@H](C)CC)[C@@H](C)O)[C@@H](C)CC [Human GLP-2 (1–33)] gave an Emax (GLP-2R Y182^1.43A) of 102 ± 3.9% and an Emax (GLP-2R N334^ECL2A) of 103 ± 2.9%.
Work on [^125I]GLP-2(1–33, M10Y) (peptide) yielded a % Binding of WT [1] of 131%, a % Binding of WT [2] of 5% and a % Binding of WT [3] of 2.2%. The % Binding of WT [4] was 7.3% and the % Binding of WT [5] was 99.2%.
